# Reference: patent US20250011418A1 (ZIELBIO, published 2025)
# T1: Sec8-His (section 8 (Sec8), an antigenic region of CSP-1, tagged with a polyhistidine (His) tag)
# T1 construct: also called Sec8-His antigen
# T1 chain: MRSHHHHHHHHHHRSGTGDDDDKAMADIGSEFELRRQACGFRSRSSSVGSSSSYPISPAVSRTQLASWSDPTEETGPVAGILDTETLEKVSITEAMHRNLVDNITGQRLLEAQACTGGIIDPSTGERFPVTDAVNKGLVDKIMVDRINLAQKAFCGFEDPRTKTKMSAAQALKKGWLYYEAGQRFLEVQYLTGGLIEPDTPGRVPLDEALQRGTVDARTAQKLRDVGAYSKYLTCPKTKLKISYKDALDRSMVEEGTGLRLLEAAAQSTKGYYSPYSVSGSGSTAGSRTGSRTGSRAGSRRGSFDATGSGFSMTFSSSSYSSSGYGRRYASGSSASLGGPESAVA
# Molecular target: T1, Sec8-His (section 8 (Sec8), an …)
# Test: BLI (Octet), single shot: antibody on anti-human IgG tips, 24 nM Sec8-His
# Protocol: After humanization, the antibodies were tested for their capability to bind to an antigenic region of CSP-1 called section 8 (Sec8). Antigen binding was assessed by single-shot Octet analysis. Antibodies were loaded onto anti-human IgG tips, and the loaded tips were dipped into wells containing the Sec8-His antigen. Scouting experiments were used to determine ideal conditions for loading (10 minute incubation in 1 μg/mL IgG) and antigen binding (5 minute incubation in 24 nM Sec8-His, followed by a 5 minute dissociation step in buffer). Two negative controls were included with each experiment. First, a tip was loaded with irrelevant IgG dipped into 24 nM Sec8-His to control for non-specific interactions between the tip and the antigen. Next, tips loaded with humanized 1D7 variants were dipped into 24 nM GST-His to control for off-target binding of the antibody (a significant risk if a given variant is destabilized and/or exposes significant hydrophobic surface). The data from the irrelevant IgG control were subtracted from the data obtained with the […]-loaded tips. The mean and standard deviation of the signal change values for the GST-His control wells were used to calculate a threshold for positive binding (mean+3 standard deviations of the GST-His signal). Variants that were below this threshold are considered to have no specific binding to Sec8.
binder,measurement,value
"humanized anti-CSP-1 antibody, Antibody Number 2 (Table 1) (antibody, human IgG1, V domains shown, also called Antibody 2) VH: QIQLVQSGPELKKPGETVKISCKASGYTFTDYSMHWVKQAPGKGLKWMGWIQTETGEPTYADDFKGRFAFSLETSASTAYLQINNLKNEDTATYFCAPGGFAYWGQGTLVTVSA VL: DIVMTQAAPSVPVTPGESVSISCRSSKSLLHSNGNTYLYWFLQRPGQSPQLLIYRMSNLASGVPDRFSGSGSGTAFTLRISRVEAEDVGVYYCMQHLEYPLTFGAGTKLELK",binding result,binds
"humanized anti-CSP-1 antibody, Antibody Number 11 (Table 1) (antibody, human IgG1, V domains shown, also called Antibody 11) VH: QIQLVQSGPEVKKPGASVKISCKASGYTFTDYSMHWVKQAPGQGLKWMGWINTETGEPTYADDFKGRFTFTLDTSTSTAYLEISSLRSEDTATYFCAPGGFAYWGQGTLVTVSS VL: DIVMTQSAPSVPVTPGQSVSISCRSSKSLLHSNGNTYLYWFLQKPGQSPQLLIYRMSNRASGVPDRFSGSGSGTDFTLKISRVEAEDVGVYYCMQHLEYPLTFGQGTKLEIK",binding result,binds
"humanized anti-CSP-1 antibody, Antibody Number 5 (Table 1) (antibody, human IgG1, V domains shown, also called Antibody 5) VH: QIQLVQSGPELKKPGETVKISCKASGYTFTDYSMHWVKQAPGKGLKWMGWINTETGEPTYADDFKGRFAFSLETSASTAYLQINNLKNEDTATYFCAPGGFAYWGQGTLVTVSA VL: DIVMTQAAPSVPVTPGESVSISCRSSKSLLHSNGNTYLYWFLQRPGQSPQLLIYRLSNLASGVPDRFSGSGSGTAFTLRISRVEAEDVGVYYCMQHLEYPLTFGAGTKLELK",binding result,binds
"humanized anti-CSP-1 antibody, Antibody Number 9 (Table 1) (antibody, human IgG1, V domains shown, also called Antibody 9) VH: QIQLVQSGPELKKPGETVKISCKASGYTFTDYSMHWVKQAPGKGLKWMGWINTETGEPTYADDFKGRFAFSLETSASTAYLQINNLKNEDTATYFCAPGGFAYWGQGTLVTVSA VL: DIVMTQSAPSVPVTPGQSVSISCRSSKSLLHSNGNTYLYWFLQKPGQSPQLLIYRMSNRASGVPDRFSGSGSGTDFTLKISRVEAEDVGVYYCMQHLEYPLTFGQGTKLEIK",binding result,binds
"humanized anti-CSP-1 antibody, Antibody Number 4 (Table 1) (antibody, human IgG1, V domains shown, also called Antibody 4) VH: QIQLVQSGPELKKPGETVKISCKASGYTFTDYSMHWVKQAPGKGLKWMGWINTETGEPTYADDFKGRFAFSLETSASTAYLQINNLKNEDTATYFCAPGGFAYWGQGTLVTVSA VL: DIVMTQAAPSVPVTPGESVSISCRSSKSLLHSNGNTYLYWFLQRPGQSPQLLIYRVSNLASGVPDRFSGSGSGTAFTLRISRVEAEDVGVYYCMQHLEYPLTFGAGTKLELK",binding result,binds
"humanized anti-CSP-1 antibody, Antibody Number 10 (Table 1) (antibody, human IgG1, V domains shown, also called Antibody 10) VH: QIQLVQSGPELKKPGETVKISCKASGYTFTDYSMHWVKQAPGKGLKWMGWINTETGEPTYADDFKGRFAFSLETSASTAYLQINNLKNEDTATYFCAPGGFAYWGQGTLVTVSA VL: DIVMTQSAPSLPVTPGQSVSISCRSSKSLLHSNGNTYLYWFLQKPGQSPQLLIYRMSNRASGVPDRFSGSGSGTDFTLKISRVEAEDVGVYYCMQHLEYPLTFGQGTKLEIK",binding result,binds
"humanized anti-CSP-1 antibody, Antibody Number 6 (Table 1) (antibody, human IgG1, V domains shown, also called Antibody 6) VH: QIQLVQSGPELKKPGETVKISCKASGYTFTDYSMHWVKQAPGKGLKWMGWINTETGEPTYADDFKGRFAFSLETSASTAYLQINNLKNEDTATYFCAPGGFAYWGQGTLVTVSA VL: DIVMTQAAPSVPVTPGESVSISCRSSKSLLHSNGNTYLYWFLQRPGQSPQLLIYRISNLASGVPDRFSGSGSGTAFTLRISRVEAEDVGVYYCMQHLEYPLTFGAGTKLELK",binding result,binds
"humanized anti-CSP-1 antibody, Antibody Number 3 (Table 1) (antibody, human IgG1, V domains shown, also called Antibody 3) VH: QIQLVQSGPELKKPGETVKISCKASGYTFTDYSMHWVKQAPGKGLKWMGWINTETGEPTYADDFKGRFAFSLETSASTAYLQINNLKNEDTATYFCAPGGFAYWGQGTLVTVSA VL: DIVMTQAAPSVPVTPGESVSISCRSSKSLLHSSGNTYLYWFLQRPGQSPQLLIYRMSNLASGVPDRFSGSGSGTAFTLRISRVEAEDVGVYYCMQHLEYPLTFGAGTKLELK",binding result,binds
